Results on 2 molecules are retold here after US20190315864A1.

The test deals with Fc protein. The test is described as follows: ELISA, Fc protein coated, 10 ng VHH/well.

B1: CTLA4 heavy chain single domain antibody No. J38 (VHH)
VHH: QVQLQESGGGSVQAGGSLRLSCAPSRYSGALMGWFRQAPGKEREGVAVISRSGLTTYYADSVKGRFTISQDTAKNTIYLQMNSMKPEDTAMYYCVAGWHVGGTWSETSSYDYWGQGTQVTVSS
B1 returned an OD (against Fc) of 0.752 OD405.

B2: CTLA4 heavy chain single domain antibody No. 188 (VHH)
VHH: QVQLQESGGGSVQAGGSLRLSCAASGYTYSSVCMGWFRQALGKEREAVVGIDGDGITMYANSVKGRFTISKDNAKNTLYLQMNSLKPEDTAMYYCASGGGQGDGSCALTYWGQGTQVTVSS
As to B2, the OD (against Fc) is 1.02 OD405.
